Substitutions are numbered along the chain they refer to.
B1: plasma purified human CFI (Comptech) (protein)
chain: KVTYTSQEDLVEKKCLAKKYTHLSCDKVFCQPWQRCIEGTCVCKLPYQCPKNGTAVCATNRRSFPTYCQQKSLECLHPGTKFLNNGTCTAEGKFSVSLKHGNTDSEGIVEVKLVDQDKTMFICKSSWSMREANVACLDLGFQQGADTQRRFKLSDLSINSTECLHVHCRGLETSLAECTFTKRRTMGYQDFADVVCYTQKADSPMDDFFQCVNGKYISQMKACDGINDCGDQSDELCCKACQGKGFHCKSGVCIPSQYQCNGEVDCITGEDEVGCAGFASVTQEETEILTADMDAERRRIKSLLPKLSCGVKNRMHIRRKRIVGGKRAQLGDLPWQVAIKDASGITCGGIYIGGCWILTAAHCLRASKTHRYQIWTTVVDWIHPDLKRIVIEYVDRIIFHENYNAGTYQNDIALIEMKKDGNKKDCELPRSIPACVPWSPYLFQPNDTCIVSGWGREKDNERVFSLQWGEVKLISNCSKFYGNRFYEKEMECAGTYDGSIDACKGDSGGPLVCMDANNVTYVWGVVSWGENCGKPEFPGVYTKVANYFDWISYHVGRPFISQYNV
B2: human Complement Factor I expressed from pAAV.CFI / AAV.CFI (cDNA of SEQ ID NO: 2, Genbank NM_000204.4) (protein)
chain: B1 chain with T282A
B3: human Complement Factor I expressed from pAAV.CFIco / AAV.CFIco (codon-optimised cDNA of SEQ ID NO: 8) (protein)
chain: B1 chain

target: plasma purified C3b (Comptech), P01024
Sequence (P01024 whole entry, looked up): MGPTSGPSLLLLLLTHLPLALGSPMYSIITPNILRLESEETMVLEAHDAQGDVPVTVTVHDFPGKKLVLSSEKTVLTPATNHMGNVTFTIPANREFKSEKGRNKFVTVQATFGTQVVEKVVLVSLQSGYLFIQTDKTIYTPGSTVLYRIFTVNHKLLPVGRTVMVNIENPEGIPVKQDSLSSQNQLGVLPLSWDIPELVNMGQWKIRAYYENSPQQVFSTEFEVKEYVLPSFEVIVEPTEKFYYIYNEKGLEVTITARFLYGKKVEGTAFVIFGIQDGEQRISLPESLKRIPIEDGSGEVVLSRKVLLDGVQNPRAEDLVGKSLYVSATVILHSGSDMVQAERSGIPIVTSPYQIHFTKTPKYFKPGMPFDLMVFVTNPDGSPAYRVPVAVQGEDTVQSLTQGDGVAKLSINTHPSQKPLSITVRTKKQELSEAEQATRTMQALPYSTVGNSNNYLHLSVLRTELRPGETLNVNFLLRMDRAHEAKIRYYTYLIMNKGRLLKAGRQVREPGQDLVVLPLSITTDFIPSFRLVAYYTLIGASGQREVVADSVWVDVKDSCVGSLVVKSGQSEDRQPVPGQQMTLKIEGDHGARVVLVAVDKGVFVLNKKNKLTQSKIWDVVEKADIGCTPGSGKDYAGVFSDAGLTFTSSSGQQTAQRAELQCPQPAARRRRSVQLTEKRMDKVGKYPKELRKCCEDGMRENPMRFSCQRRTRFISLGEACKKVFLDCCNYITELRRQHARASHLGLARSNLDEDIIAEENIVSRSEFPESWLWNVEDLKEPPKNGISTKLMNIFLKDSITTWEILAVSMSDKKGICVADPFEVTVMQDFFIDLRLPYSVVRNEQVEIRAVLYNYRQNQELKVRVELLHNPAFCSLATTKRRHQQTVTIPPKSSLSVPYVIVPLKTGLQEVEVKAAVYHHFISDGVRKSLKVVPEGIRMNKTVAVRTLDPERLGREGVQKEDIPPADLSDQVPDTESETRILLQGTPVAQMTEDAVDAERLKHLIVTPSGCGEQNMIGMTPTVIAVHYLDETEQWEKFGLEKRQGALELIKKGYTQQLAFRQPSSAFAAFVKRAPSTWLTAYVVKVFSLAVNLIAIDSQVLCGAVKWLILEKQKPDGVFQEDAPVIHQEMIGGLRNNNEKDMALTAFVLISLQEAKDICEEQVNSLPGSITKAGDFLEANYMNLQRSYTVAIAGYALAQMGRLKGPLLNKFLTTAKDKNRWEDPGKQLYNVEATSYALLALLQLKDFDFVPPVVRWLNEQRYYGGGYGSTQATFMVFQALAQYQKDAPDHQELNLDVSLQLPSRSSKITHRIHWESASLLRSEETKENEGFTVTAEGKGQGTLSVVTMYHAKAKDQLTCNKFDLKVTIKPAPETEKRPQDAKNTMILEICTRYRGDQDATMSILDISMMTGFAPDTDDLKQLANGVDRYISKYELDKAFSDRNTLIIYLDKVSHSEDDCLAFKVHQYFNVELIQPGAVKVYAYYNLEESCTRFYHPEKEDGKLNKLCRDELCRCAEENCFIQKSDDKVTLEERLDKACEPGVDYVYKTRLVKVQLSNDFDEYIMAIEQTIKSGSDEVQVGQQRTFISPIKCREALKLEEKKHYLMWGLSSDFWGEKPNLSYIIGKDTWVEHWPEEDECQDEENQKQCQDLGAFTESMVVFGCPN

| Protein | C3b cleavage assay (with CFH as co-factor; immunoblot with clone 9) |
| --- | --- |
| B1 | C3b is degraded by CFIpl to iC3b and C3dg |
| B2 | CFI secreted from transduced cell lines is functionally active and cleaves the α-chain of C3b to iC3b |
| B3 | CFI secreted from transduced cell lines is functionally active and cleaves the α-chain of C3b to iC3b |
